# Measurements reported in US20240270841A1.
# Target: LILRB1 expressed on the surface of human natural killer cell KHYG-1 (human) (UniProt Q8NHL6)
# Assay: flow cytometry (iQue) on KHYG-1 NK cells, antibody 50 ug/mL
# Sequence of LILRB1 expressed on the surface of human natural killer cell KHYG-1 (human) (Q8NHL6 24-650): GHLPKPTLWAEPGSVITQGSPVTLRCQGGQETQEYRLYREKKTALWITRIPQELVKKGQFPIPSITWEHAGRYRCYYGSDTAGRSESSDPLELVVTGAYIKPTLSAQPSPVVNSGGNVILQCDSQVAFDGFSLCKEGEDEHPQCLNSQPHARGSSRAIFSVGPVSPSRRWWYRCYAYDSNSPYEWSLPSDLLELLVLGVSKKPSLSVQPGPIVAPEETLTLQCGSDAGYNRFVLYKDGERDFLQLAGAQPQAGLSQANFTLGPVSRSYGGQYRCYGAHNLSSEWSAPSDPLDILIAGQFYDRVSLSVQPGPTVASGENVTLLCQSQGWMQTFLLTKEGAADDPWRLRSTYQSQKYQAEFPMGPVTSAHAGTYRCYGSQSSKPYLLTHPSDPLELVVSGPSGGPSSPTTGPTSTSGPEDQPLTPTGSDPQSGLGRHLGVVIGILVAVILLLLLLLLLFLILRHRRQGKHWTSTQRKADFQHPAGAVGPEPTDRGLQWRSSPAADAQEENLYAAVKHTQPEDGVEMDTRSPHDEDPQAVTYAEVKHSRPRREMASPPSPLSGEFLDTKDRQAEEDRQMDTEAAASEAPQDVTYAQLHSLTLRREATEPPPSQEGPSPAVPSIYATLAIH
substance,measurement,value
human IgG4 isotype control antibody (Biolegend),% of population 2,2.95%
same,Mean Fluorescence Intensity,143000
